± gives the half width of the 95% confidence interval.
Assays:
[1] = folding stability dG unfold from trypsin proteolysis; higher = more stable
Summary of the method: (§1)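 Mini-proteins designed to be under 80 residues and free of cysteine were carried in a PA-tagged cDNA display construct and digested with trypsin and with chymotrypsin. Each protease was applied at 11 threefold-diluted concentrations, alongside a no-protease condition, before sequencing. K50 came from Bayesian fitting of the sequencing counts, and unfolding free energy was obtained by comparing it with a sequence-predicted unfolded-state K50 and a shared folded-state K50, for each protease separately or for both together. Designs were retained only if their AlphaFold2 dimer inter-PAE exceeded 15.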

[2] = folding stability dG unfold from chymotrypsin proteolysis; higher = more stable
Summary of the method: as §1

[3] = folding stability dG unfold (combined trypsin and chymotrypsin); higher = more stable
Summary of the method: as §1

| Sequence | folding stability dG unfold [1] | folding stability dG unfold [2] | folding stability dG unfold [3] |
| --- | --- | --- | --- |
| SAEMTEEERARRLAEKLREELEELGVEKVEIEFDEEERRVTVRVTLSPEVREKLAERLGLSREELDALLSAG [r14_688_TrROS_Hall] | 4.1 ± 0.1 kcal/mol | 2.914 ± 0.023 kcal/mol | 3.43 ± 0.079 kcal/mol |
| SAEPITITWPNGMQIPLYKDDDGEIEIKIQMYDPKDGKPVGEQEQRIDPDDNTIEFRFPNGWPFSITIPDSA [r9_56_TrROS] | 0.835 ± 0.11 kcal/mol | 0.0536 ± 0.57 kcal/mol | 0.473 ± 0.22 kcal/mol |
| SAERTPVREADIPIPGLPVVVRVRTYAEAVELARKSGVPVVVETVEVEVFLPDGSRVRFPAPGLLVLDGSAG [r14_100_TrMRF] | 1.41 ± 0.0081 kcal/mol | 1.55 ± 0.055 kcal/mol | 1.5 ± 0.036 kcal/mol |
| SAETVTFRVGDVEIVARRLPDGYVVVTEKVPEEYPEAELVLSLVRVYPDGTVEVESRLYRIDPETGVIGSAG [r14_724_TrMRF] | 2.12 ± 0.049 kcal/mol | 2.67 ± 0.053 kcal/mol | 2.48 ± 0.17 kcal/mol |
| SAEVELKPDEELEFEFPDSQVKISYVPGTGVITTTTTFTTPDGTVVYKTTTIKKEGKEVTSTTVSLAEASSA [r9_881_JUSTAS] | 0.389 ± 0.054 kcal/mol | 1.52 ± 0.067 kcal/mol | 1.17 ± 0.12 kcal/mol |
| SAEVRPDEVLRIEVRLRVGDVEFTAEAEIPAGLSEEEIREAVERIREEAERLAERLRRLPPLRPPEELLSAG [r14_70_TrMRF] | 1.63 ± 0.086 kcal/mol | 2.96 ± 0.14 kcal/mol | 2.64 ± 0.43 kcal/mol |
| SAEVRTVTDANGTQRTVTKTPDGTETVTTRPVPAPPPPPTVTVEVEYDAENGTLTVRLPDGSKLEFTFEDSA [r9_56_TrROS_Hall] | -0.118 ± 0.23 kcal/mol | 0.982 ± 0.046 kcal/mol | 0.742 ± 0.26 kcal/mol |
| SAEVRVEIVEVDEERGVIRIEITVPEDLPEEEILEELARRLEELARERGYEVRIERREDGTYRIEIRFPSAG [r14_865_TrROS_Hall] | 4.18 ± 0.16 kcal/mol | 4.26 ± 0.071 kcal/mol | 4.25 ± 0.11 kcal/mol |
| SAEVVIVIEPGMTEEQVRARLKAALEEALRKGKKVKKIVVKSEEAARRIRDLLKELGVPEEDVEVVLLPSAG [r14_589_TrROS_Hall] | 4.92 ± 0.51 kcal/mol | 3.45 ± 0.17 kcal/mol | 4.93 ± 0.36 kcal/mol |
| SAEYTPVGPNEDAEVWEVPNLGKLFTIDPKDDVVEITEVHFDDGDLSPHPHTVRVDVPEEDRDRLRDLLSAG [r14_245_TrMRF] | 0.0643 ± 0.06 kcal/mol | -1.11 ± 0.58 kcal/mol | -0.213 ± 0.14 kcal/mol |
| SAGAEVEVVELTDEEIEALAKELNPDVTIEVVVVRVPPPPEKVEVRDPETGETVTLTVTPDGEIRAEKSAGG [r19_70_TrROS_Hall] | 0.624 ± 0.091 kcal/mol | -0.235 ± 0.16 kcal/mol | 0.0774 ± 0.35 kcal/mol |
| SAGAKVEIEFEGNKVTAKIEFGEGTVTVEGEVKLLPDGSALFKPKIYKDGKKIGEFTVLLDLPEGAEVLSAG [r5_221_TrMRF] | 1.37 ± 0.062 kcal/mol | 1.95 ± 0.057 kcal/mol | 1.84 ± 0.16 kcal/mol |
| SAGAMLTLELTVEADSPEEAIERAKEIAKELIKKEYPELSKNTKIEKITAEPTPGPEVKVTITIKIDPGSAG [r5_320_JUSTAS] | 4.42 ± 0.17 kcal/mol | 3.61 ± 0.18 kcal/mol | 4.32 ± 0.22 kcal/mol |
| SAGAMPPVVEVAPVEGEGLLRVTVPVPTSDVVRVTVDLGDRRLEYTLPRDASLEVSTADAEVRVAVELVSAG [r14_96_JUSTAS] | 0.5 ± 0.031 kcal/mol | 0.639 ± 0.1 kcal/mol | 0.638 ± 0.056 kcal/mol |
| SAGAMVTHTITVKIDPSELDKLEEILEKIKNSGPVKAIEPVSFEPGTGVYTVKVTADPATIKLVEEALKSAG [r5_193_JUSTAS] | 4.51 ± 0.28 kcal/mol | 4.14 ± 0.062 kcal/mol | 4.24 ± 0.069 kcal/mol |
| SAGARIVPIKINLKWNPDNGQLEVPIEMYVNNHPVEMEARFDPEDPGKIEFEITYPGNGQEIRASIPLPSAG [r14_178_TrROS] | 0.951 ± 0.098 kcal/mol | -0.0473 ± 0.31 kcal/mol | 0.467 ± 0.26 kcal/mol |
| SAGATATPPAVRVATARLPLPFGTGTEVTVTTYSDGSATVTARFPDGVVATAFVSPDGSAVVTVAPAGGSAG [r5_168_TrMRF] | 0.992 ± 0.064 kcal/mol | 2.955 ± 0.024 kcal/mol | 2.41 ± 0.061 kcal/mol |
| SAGATPTTLSFTDPEGKKIANVTVTVLPGGRQEASITNSDSNESYTAEYDPATGTWTLTFPDGTTLTVGSAG [r5_809_JUSTAS] | 1.15 ± 0.039 kcal/mol | 1.75 ± 0.032 kcal/mol | 1.58 ± 0.059 kcal/mol |
| SAGATTTTTTTNPADDTTVTTTTTTTGNTSTVTSTSTSGSTSTLTTTTVTFTSPTTTTTTTTTTPVPSSAGG [r19_292_JUSTAS] | 0.679 ± 0.03 kcal/mol | -0.45 ± 0.22 kcal/mol | 0.264 ± 0.074 kcal/mol |
| SAGAVELPPGVAAVERDPETGVVTATYPDGTVTRYTVSTEWDPTVGRTRPRVTVEVWSPDSRISTRDLPSAG [r5_109_JUSTAS] | 0.119 ± 0.31 kcal/mol | 0.799 ± 0.13 kcal/mol | 0.527 ± 0.12 kcal/mol |
| SAGAVRPDEPVTVTVTVEVDPETGFVRVTFDAAAPDGITVEALIPPDGPVLVRVRRPGSRETVEVVLPASAG [r5_55_TrMRF] | 2.57 ± 0.13 kcal/mol | 3.31 ± 0.045 kcal/mol | 3.06 ± 0.072 kcal/mol |

| Sequence | folding stability dG unfold [1] | folding stability dG unfold [2] | folding stability dG unfold [3] |
| --- | --- | --- | --- |
| SAGDAEEIAKKIEEAAREEFAARLGYPDLEILKVEVLEVDPVTGRVRVRVTVRLPDGRLLEAEFEVPVASAG [r5_20_TrMRF] | 3.83 ± 0.06 kcal/mol | 3.41 ± 0.06 kcal/mol | 3.65 ± 0.065 kcal/mol |
| SAGDAVRIPIRFPNGMQIYSIEINPDENTIKIKIYDPNGYRKFEWTFPVKDPNGDPKLVGKIKFYMRPPSAG [r5_434_TrROS] | 2.01 ± 0.069 kcal/mol | 2.61 ± 0.16 kcal/mol | 2.31 ± 0.23 kcal/mol |
| SAGDFLKNLPPGIKRWRPVASDPDGHFVFVFKYKTPDRPRYMVIQFPPNGRIQDIHIFPPDEADKAVNKSAG [r5_73_TrROS] | 0.72 ± 0.073 kcal/mol | 2.04 ± 0.23 kcal/mol | 1.52 ± 0.25 kcal/mol |
| SAGDGDKMRGEHEREDPNGKKREVTHEMKVQPPPVPKPKIELPADDIDEIDPDNGTLRNPGNGKPFPIGSAG [r5_807_TrROS] | 0.0244 ± 0.15 kcal/mol | -0.465 ± 0.17 kcal/mol | -0.31 ± 0.41 kcal/mol |
| SAGDNYREVEYTLKLKNPKGERKLKVKVYYPKGGMFIKIEWPDNGRKIDIPFKSPEDAEETIKDLLDKLSAG [r5_480_TrROS] | 1.71 ± 0.059 kcal/mol | 2.25 ± 0.13 kcal/mol | 2.13 ± 0.22 kcal/mol |
| SAGDQTITIKIPNAPPGSRVQIMLFDPGKIKGFHEIDPDDPKEVEIKIELPPYTIMIYVADGNVFPIPISAG [r5_646_TrROS] | 1.94 ± 0.12 kcal/mol | 2.82 ± 0.059 kcal/mol | 2.46 ± 0.21 kcal/mol |
| SAGDRIRITMPFDDLRKIMDEIGYPPEQMTAEEFADRLAEHFPGVKVDIEMDREDGYFTVEIELPPGMKSAG [r5_264_TrROS] | 1.43 ± 0.062 kcal/mol | 1.43 ± 0.041 kcal/mol | 1.42 ± 0.18 kcal/mol |
| SAGDSIEIMVMVKTPEEAKKLADEIAQILPGNGLNIEITIMPMEELMKMFMEMTKPDPDGEYRRVRMFSAGG [r19_187_TrROS] | 1.07 ± 0.053 kcal/mol | 1.37 ± 0.13 kcal/mol | 1.3 ± 0.14 kcal/mol |
| SAGDSVVIPFRLPPENLSPEELLEWIIDEVKEAAKAGLPHKVTIQVPYPGKPWYITIDPKNGEIEIVPSAGG [r19_204_TrROS] | 1.04 ± 0.088 kcal/mol | 1.66 ± 0.085 kcal/mol | 1.52 ± 0.15 kcal/mol |
| SAGDTISIMIPPGMSGERAVNQIKYIAREQKENGKKRKITIWMPDPMRARFIKKALDEKGIPIEIEFWSAGG [r19_268_TrROS] | 1.24 ± 0.049 kcal/mol | 0.766 ± 0.11 kcal/mol | 1 ± 0.1 kcal/mol |
| SAGDVKVITIKNPDGWQASIALNEDGTVYLMFNSPDQFLDLIEDLGFPITSVEMHPNGMMIFTIELPPSAGG [r19_257_TrROS] | 2.27 ± 0.061 kcal/mol | 4.26 ± 0.17 kcal/mol | 3.41 ± 0.18 kcal/mol |
| SAGEEKEAKALAEQYAAEFAPKLGMKYEVPEVKVEKDEKTGKITVTVTVKFTFPEPRTVTKKFTIVVPKSAG [r5_381_JUSTAS] | 2.4 ± 0.14 kcal/mol | 1.61 ± 0.11 kcal/mol | 2.14 ± 0.27 kcal/mol |
| SAGEERTVRVEIEIVVKTEEELEALKALFPNAEATRNEDGLLTLRLTIEVRVAPPVVVRDPETNELLELSAG [r5_129_TrROS_Hall] | 2.56 ± 0.088 kcal/mol | 2.42 ± 0.049 kcal/mol | 2.46 ± 0.11 kcal/mol |
| SAGEFEVLEVREVDGRLVVRLALPDKPEVVTIVLERHPDGSVRALIEAEGEAADRIVEALPELDEVVVASAG [r5_933_TrMRF] | 1.9 ± 0.036 kcal/mol | 2.64 ± 0.11 kcal/mol | 2.46 ± 0.15 kcal/mol |
| SAGEIAEYIAEYLAQEPGFQDVEVNIKITDIEPPPNGYMYHKIDIHVRVRNPDDGKPREVNFDITFPMPSAG [r5_176_TrROS] | 1.1 ± 0.084 kcal/mol | 1.83 ± 0.068 kcal/mol | 1.7 ± 0.17 kcal/mol |
| SAGEIKIEIKKNKNGKLTIRITVKKKDGEEKEIEIEVPENMTAEELAKELEKKGFEITEIKSIEELLKSAGG [r19_263_TrROS_Hall] | 3.89 ± 0.34 kcal/mol | 3.83 ± 0.25 kcal/mol | 3.98 ± 0.6 kcal/mol |
| SAGEKEVIEIEVRVTVVRRLPEDLSEEQRKALEDELEVEEVTVRVRFDLDTGRIYVEFEDGSRLEFELPSAG [r5_701_TrROS_Hall] | 2.67 ± 0.054 kcal/mol | 3.37 ± 0.066 kcal/mol | 3.16 ± 0.1 kcal/mol |
| SAGEKKIKIEIKEIKPHENGYLSIKAKAYLEDGKKVAEVYEPYPPNLSLEELIEKVIERLEKEVKEKGESAG [r5_697_TrMRF] | 0.445 ± 0.039 kcal/mol | -0.207 ± 0.18 kcal/mol | 0.22 ± 0.21 kcal/mol |
| SAGEKKLTEEEIKKLVEELLKKLKPGEKEKVTLEIELTLEDGRKVKIRITVEVKDGKLVVKIEVEELPSAGG [r19_220_TrROS_Hall] | 3.65 ± 0.27 kcal/mol | 3.64 ± 0.52 kcal/mol | 3.68 ± 0.46 kcal/mol |
| SAGELKITIAVFRPVEKDENGKEVKVELVEVKTITISKEDLTEEEILKLAEELKKKFPNTVILVTIEPSAGG [r19_369_TrROS_Hall] | 2.59 ± 0.23 kcal/mol | 2.93 ± 0.19 kcal/mol | 2.91 ± 0.19 kcal/mol |
| SAGELKPGQIVVRTIEIDLPEEDEELREAIERGELIELELEDGSRVLMRVERKDGKLRITEVVILPRPESAG [r5_223_TrROS_Hall] | 1.66 ± 0.043 kcal/mol | 3.16 ± 0.029 kcal/mol | 2.73 ± 0.062 kcal/mol |

— the supplement of paper PMC12764529
